Test [1] has as its target RhCas12f1 from Ruminiclostridium herbifermentans (Ruminiclostridium herbifermentans). Description: SEC; Cas12f1 RNP assembled in vitro at 4:3 molar ratio protein:sgRNA in buffer D (25 mM Tris-HCl pH 8.0, 150 mM NaCl, 2 mM DTT, 1 mM MgCl2) at 37 °C for 30 min; Superdex 200 Increase 10/300 equilibrated with buffer D; calibrated with Gel Filtration Standard (Bio-Rad); dimer in presence of sgRNA.

For test [2], the target named is OsCas12f1 from Oscillibacter sp. (Oscillibacter sp.). The test is described as above.

For 2 substances, stoichiometry N results are on record in article PMC10090079.

A word on the stoichiometry N: it is the number of molecules, sites or subunits per partner or assembly.

On to “RhCas12f1 from Ruminiclostridium herbifermentans (enzyme)”, for which the stoichiometry N in test [1] was 2. For the substance “OsCas12f1 from Oscillibacter sp. (enzyme)”, the stoichiometry N in test [2] came out at 2.
